The text below walks through data of paper PMC12212125, “Constitutively active Arabidopsis cryptochrome two alleles identified using yeast selection and deep mutational scanning” (The Journal of Biological Chemistry, 2025).

The chains are these.
B1: Arabidopsis cryptochrome 2, truncated CRY2(535) (residues 1-535), wild type [Arabidopsis thaliana] / itself (parent)
chain: MKMDKKTIVWFRRDLRIEDNPALAAAAHEGSVFPVFIWCPEEEGQFYPGRASRWWMKQSLAHLSQSLKALGSDLTLIKTHNTISAILDCIRVTGATKVVFNHLYDPVSLVRDHTVKEKLVERGISVQSYNGDLLYEPWEIYCEKGKPFTSFNSYWKKCLDMSIESVMLPPPWRLMPITAAAEAIWACSIEELGLENEAEKPSNALLTRAWSPGWSNADKLLNEFIEKQLIDYAKNSKKVVGNSTSLLSPYLHFGEISVRHVFQCARMKQIIWARDKNSEGEESADLFLRGIGLREYSRYICFNFPFTHEQSLLSHLRFFPWDADVDKFKAWRQGRTGYPLVDAGMRELWATGWMHNRIRVIVSSFAVKFLLLPWKWGMKYFWDTLLDADLECDILGWQYISGSIPDGHELDRLDNPALQGAKYDPEGEYIRQWLPELARLPTEWIHHPWDAPLTVLKASGVELGTNYAKPIVDIDTARELLAKAISRTREAQIMIGAAPDEIVADSFEALGANTIKEPGLCPSVSSNDQQVPSAV

In the experiment the parent is B1. The experiment is described as follows: yeast two-hybrid, quantitative GalUAS-lacZ (beta-galactosidase) reporter assay. As to conditions: with itself, strain AH109, read off a plot. (In a reporter assay the amount or activity of a reporter protein is the signal.)

Regarding MKMDKKTIVWFRRDLRIEDNPALAAAAHEGSVFPVFIWCPEEEGQFYPGRASRWWMKQSLAHLSQSLKALGSDLTLIKTHNTISAILDCIRVTGATKVVFNHLYDPVSLVRDHTVKEKLVERGISVQSYNGDLLYEPWEIYCEKGKPFTSFNSYWKKCLDMSIESVMLPPPWRLMPITAAAEAIWACSIEELGLENEAEKPSNALLTRAWSPGWSNADKLLNEFIEKQLIDYAKNSKKVVGNSTSLLSPYLHFGEISVRHVFQCARMKQIIWARDKNSEGEESADLFLRGIGLREYSRYICFNFPFTHEQSLLSHLRFFPWDADVDKFKAWRQGRTGYPLVDAGMRELWATGWMHNRIRVIVSSFAVKFLLLPWKWGMKYFWDTLLDADLECAILGWQYISGSIPDGHELDRLDNPALQGAKYDPEGEYIRQWLPELARLPTEWIHHPWDAPLTVLKASGVELGTNYAKPIVDIDTARELLAKAISRTREAQIMIGAAPDEIVADSFEALGANTIKEPGLCPSVSSNDQQVPSAV [chain 1 D393A], the response was 160 Miller units (dark, parent: 25) and 180 Miller units (light, parent: 220).
For MKMDKKTIVWFRRDLRIEDNPALAAAAHEGSVFPVFIWCPEEEGQFYPGRASRWWMKQSLAHLSQSLKALGSDLTLIKTHNTISAILDCIRVTGATKVVFNHLYDPVSLVRDHTVKEKLVERGISVQSYNGDLLYEPWEIYCEKGKPFTSFNSYWKKCLDMSIESVMLPPPWRLMPITAAAEAIWACSIEELGLENEAEKPSNALLTRAWSPGWSNADKLLNEFIEKQLIDYAKNSKKVVGNSTSLLSPYLHFGEISVRHVFQCARMKQIIWARDKNSEGEESADLFLRGIGLREYSRYICFNFPFTHEQSLLSHLRFFPWDADVDKFKAWRQGRTGYPLVDAGMRELWATGWMHNRIRVIVSSFAVKFLLLPWKWGMKYFWDTLLDADLECSILGWQYISGSIPDGHELDRLDNPALQGAKYDPEGEYIRQWLPELARLPTEWIHHPWDAPLTVLKASGVELGTNYAKPIVDIDTARELLAKAISRTREAQIMIGAAPDEIVADSFEALGANTIKEPGLCPSVSSNDQQVPSAV [chain 1 D393S], in that order: 170 Miller units and 160 Miller units.
The matching figures for MKMDKKTIVWFRRDLRIEDNPALAAAAHEGSVFPVFIWCPEEEGQFYPGRASRWWMKQSLAHLSQSLKALGSDLTLIKTHNTISAILDCIRVTGATKVVFNHLYDPVSLVRDHTVKEKLVERGISVQSYNGDLLYEPWEIYCEKGKPFTSFNSYWKKCLDMSIESVMLPPPWRLMPITAAAEAIWACSIEELGLENEAEKPSNALLTRAWSPGWSNADKLLNEFIEKQLIDYAKNSKKVVGNSTSLLSPYLHFGEISVRHVFQCARMKQIIWARDKNSEGEESADLFLRGIGLREYSRYICFNFPFTHEQSLLSHLRFFPWDADVDKFKAWRQGRTGYPLVDAGMRELWATGWMHNRIRVIVSSFAVKFLLLPWKWGRKYFWDTLLDADLECDILGWQYISGSIPDGHELDRLDNPALQGAKYDPEGEYIRQWLPELARLPTEWIHHPWDAPLTVLKASGVELGTNYAKPIVDIDTARELLAKAISRTREAQIMIGAAPDEIVADSFEALGANTIKEPGLCPSVSSNDQQVPSAV [chain 1 M378R]: 210 Miller units and 240 Miller units.
